Data as given in PMC2192027.

Tests used:
[1] = target: CLIMP-63 luminal fragment 268–459 (UniProt Q07065); experiment: AUC
[2] = target: recombinant full-length luminal segment of CLIMP-63 (amino acids 127–601) (UniProt Q07065); experiment: AUC

| Substance | stoichiometry N [1] | percent sedimenting at 26 S (1.5 M urea) [2] | percent sedimenting at 26 S (2 M urea) [2] | percent sedimenting at 26 S (2.5 M urea) [2] |
| --- | --- | --- | --- | --- |
| CLIMP-63 luminal fragment 268–459 (from UniProt Q07065 268-459) (domain or fragment) | 2 | – | – | – |
| recombinant full-length luminal segment of CLIMP-63 (amino acids 127–601) (from UniProt Q07065 127-601) (domain or fragment) | – | 80% | 50% | 20% |
